One molecule from patent US12221481B2, “CD19 binding molecules and uses thereof” (Novartis AG, priority 2019, dated 2025) can be followed below.

The nature of data set [1]: Thermal stability of CD58 variants by differential scanning fluorimetry (DSF). The data set is classed as physicochemical. As to the method:
Disulfide stabilized variants were assessed for improved thermal stability using both differential scanning calorimetry (DSC) and differential scanning fluorimetry (DSF) using standard techniques. For DSF, 1-3 ug of each construct was add to 1× Sypro Orange (Thermo-Fisher) in 25 ul total volume in 96-well PCR plate. Using a Bio-Rad CFX96 RT-PCR system equipped with C1000 Thermal Cycler, the temperature was increased from 25° C. to 95° C. at 0.5° C./minute and the fluorescence monitored. The manufacturer-supplied software was used to determine Tm.
On the technique in general: In DSF a fluorescence change marks the thermal transition of the protein.

Data set [2] is described as follows: Thermal stability of CD58 variants by differential scanning calorimetry (DSC). The data set is classed as physicochemical. Particulars: HBS, 0.5 mg/mL. Here is the method:
For DSC, all samples were dialyzed into HEPES-buffered saline (HBS) and diluted to final concentration of 0.5 mg/mL. Tm and Tonset were determined using a MicroCal VP-Capillary DSC system (Malvern) by increasing temperature from 25° C. to 100° C. at 1° C./minute with a filtering period of 2 seconds and a mid-gain setting.
For orientation: In DSC, transitions show as peaks or steps in heat flow.

The target of another data set is T1, recombinant human CD2 (Homo sapiens, UniProt P06729).
T1 construct: transiently produced and purified from HEK293 cells along with the CD2 extracellular domain; made in house; host or cells: HEK293 / HEK293F, transient
T1 sequence (P06729 with tags, fused parts or gaps): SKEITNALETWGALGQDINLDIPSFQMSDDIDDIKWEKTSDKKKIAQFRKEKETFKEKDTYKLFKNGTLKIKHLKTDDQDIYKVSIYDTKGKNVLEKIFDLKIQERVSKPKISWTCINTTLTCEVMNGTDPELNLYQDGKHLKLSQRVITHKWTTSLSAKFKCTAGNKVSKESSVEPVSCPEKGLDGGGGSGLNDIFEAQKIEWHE
The experiment in a line: Isothermal calorimetry (ITC) of CD58 variants binding to CD2. As to conditions: apparent KD, CD2 titrated into 10 μM CD58 variant, HBS. Here is the method: To ensure the binding affinity remained uncompromised by the additional of the stabilizing disulfide variance, isothermal calorimetry (ITC) was performed on the resulting recombinant CD58 proteins to determine their apparent KD and binding stoichiometry (n) to recombinant human CD2.
Briefly, recombinant human CD2 and recombinant human CD58 variants were dialyzed into HEPES-buffered saline (HBS). CD2 was diluted to final concentration of 100 μM, CD58 variants were diluted to 10 μM. CD2 was titrated into 10 μM of CD58 variants via multiple injections and ΔH (kcal/mole) determined using a MicroCal VP-ITC isothermal titration calorimeter (Malvern). Titrations of CD2 into HBS were used as a reference and KD and n determined from the resulting data.
On the technique in general: Isothermal titration calorimetry measures the heat released or taken up as one component is titrated into another.

B1: CD58 Full ECD: recombinant human CD58 full extracellular domain (protein)
chain: SQQIYGVVYGNVTFHVPSNVPLKEVLWKKQKDKVAELENSEFRAFSSFKNRVYLDTVSGSLTIYNLTSSDEDEYEMESPNITDTMKFFLYVLESLPSPTLTCALTNGSIEVQCMIPEHYNSHRGLIMYSWDCPMEQCKRNSTSIYFKMENDLPQKIQCTLSNPLFNTTSSIILTTCIPSSGHSRHRGGGGSHHHHHHHH
B1: the “Tm by Differential Scanning Fluorimetry (DSF)” value in data set [1] amounted to 59.5 °C. Besides, in data set [2], the “Tm by Differential Scanning Calorimetry (DSC)” value was 65.0 °C and the “Tmonset by Differential Scanning Calorimetry (DSC)” value was 48.8 °C. Also, the Kd with recombinant human CD2 was 570 nM.
